# Data: the supplement of paper PMC10567573
# B1: TRIM9 (parent)
# chain: CVQCKMPVCYQCLEEGKHSSHEVK
# Variants of: B1
# Assay: protein stability index of a GFP-peptide fusion (GPS, HEK-293T) (PSI 1-6); higher = more stable
# Conditions: c terminus: a fixed tail appended
# 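Also: lentivirally expressed fusions sorted by FACS into six bins by GFP to DsRed ratio, PSI derived from sequencing read proportions per bin multiplied by bin number.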
row,Variant,protein stability index
1,S19P,4.17
2,S19M,3.72
3,S19H,3.45
4,S19D,3.8
5,S19T,4.25
6,S19N,4.38
7,S19R,3.73
8,S19E,4.62
9,S19Q,4.51
10,S19A,4.41
11,S19F,3.37
12,S19G,3.67
13,S19L,3.89
14,S19K,3.9
15,S19I,3.4
16,S19V,3.86
17,S19W,3.35
18,S19C,3.85
19,S19Y,3.1
20,E22G,3.32
21,E22Q,2.73
22,E22A,3.57
23,E22N,3.67
24,E22R,3.12

row,Variant,protein stability index
1,E22W,3.11
2,E22M,3.65
3,E22V,4.17
4,E22I,3.8
5,E22C,4.27
6,E22S,3.68
7,E22F,3.56
8,E22K,4.31
9,E22D,3.29
10,E22Y,3.28
11,E22P,3.33
12,E22H,3.79
13,E22T,4
14,E22L,3.74
15,S20E,3.98
16,S20P,4.13
17,S20V,3.75
18,S20L,4.43
19,S20M,4
20,S20Q,4.29
21,S20D,4.3
22,S20K,4.26
23,S20I,2.9
24,S20R,4.38

row,Variant,protein stability index
1,S20T,4.07
2,S20H,4.3
3,S20F,2.59
4,S20N,3.69
5,S20Y,3.24
6,S20A,3.68
7,S20C,4.32
8,L13K,4.53
9,L13Q,4.48
10,L13W,4.7
11,L13E,4.16
12,L13A,4.22
13,L13Y,3.48
14,L13S,4.7
15,L13R,4.13
16,L13N,3.46
17,L13I,4.08
18,L13F,3.86
19,L13D,4.04
20,L13M,4.21
21,L13C,4.88
22,L13P,4.47
23,L13H,4.55
24,L13V,4.45

row,Variant,protein stability index
1,L13G,4.81
2,L13T,3.08
3,E14P,3.75
4,E14T,3.53
5,E14R,3.83
6,E14F,2.97
7,E14M,3.17
8,E14H,3.34
9,E14S,3.68
10,E14D,2.99
11,E14Y,3.15
12,E14N,3.66
13,E14Q,4.17
14,E14C,4.34
15,E14I,3.55
16,E14L,2.93
17,E14V,3.34
18,E14A,3.12
19,E14G,4.14
20,E14K,3.99
21,G16P,3.9
22,G16K,3.57
23,G16D,4.58
24,G16A,4.02

row,Variant,protein stability index
1,G16N,4.09
2,G16R,3.27
3,G16H,3.36
4,G16W,2.8
5,G16M,3.71
6,G16Y,3.41
7,G16C,4.33
8,G16Q,2.64
9,G16F,3.73
10,G16V,3.62
11,G16T,3.83
12,G16L,3.49
13,G16I,3.25
14,G16S,3.7
15,G16E,3.94
16,V8E,4.41
17,V8H,4.89
18,V8Q,4.33
19,V8L,3.65
20,V8I,3.66
21,V8G,4.82
22,V8C,3.95
23,V8T,3.79
24,V8W,3.76

row,Variant,protein stability index
1,V8F,4.03
2,V8K,5.1
3,V8M,4.13
4,V8S,4.53
5,V8D,4.21
6,V8P,3.61
7,V8A,4.13
8,V8R,3.75
9,V8N,4.49
10,V8Y,3.01
11,Y10L,4.61
12,Y10W,2.51
13,Y10I,3.71
14,Y10P,3.63
15,Y10N,4.27
16,Y10T,3.52
17,Y10Q,4.16
18,Y10D,4.83
19,Y10S,3.97
20,Y10H,4
21,Y10C,3.58
22,Y10F,4
23,Y10K,4.15
24,Y10A,4.26

row,Variant,protein stability index
1,Y10M,4.08
2,Y10E,4.32
3,Y10V,3.74
4,Y10R,4.27
5,E15R,3.47
6,E15V,3.47
7,E15N,3.82
8,E15K,3.67
9,E15T,3.69
10,E15Y,3.36
11,E15I,3.82
12,E15C,4.14
13,E15W,2.72
14,E15G,4.15
15,E15L,3.65
16,E15F,2.82
17,E15H,3.36
18,E15M,3.75
19,E15A,4.08
20,E15D,4.07
21,E15Q,3.76
22,E15S,3.81
23,E15P,3.88
